FireProtDB
Several values for one entry are separate records, joined by “and”; a condition that tells them apart may be missing. Equal values may be shown once.

Settings: Aspergillus oryzae (strain ATCC 42149 / RIB 40), whole UniProt chain shown
[1] = pH 1, Thermal, NMR, HCl, KCl 0.15 M, reversible: yes
[2] = pH 1.2, 25 °C, Thermal, Absorbance, glycine-HCl 30 mM, NaCl 0.10 M
[3] = pH 1.6, Thermal, CD, HCl, reversible: yes
[4] = pH 2, 15 °C, GdnHCl, CD, HCl, reversible: yes
[5] = pH 2.08, Thermal, CD, HCl, reversible: yes
[6] = pH 2.2, Thermal, Absorbance, glycine 50 mM
[7] = pH 2.2, Thermal, CD, glycine 50 mM
[8] = pH 2.2, Thermal, Fluorescence, glycine 50 mM
[9] = pH 2.5, Thermal, DSC, glycine 50 mM, NaCl 200 mM, reversible: yes
[10] = pH 4.5, Thermal, DSC, Potassium acetate 50 mM, reversible: no
[11] = pH 4.6, 25 °C, GdnHCl, Absorbance, Sodium acetate 100 mM, reversible: yes
[12] = pH 4.6, 30 °C, GdnHCl, Absorbance, Sodium acetate 100 mM, reversible: yes
[13] = pH 4.6, 35 °C, GdnHCl, Absorbance, Sodium acetate 100 mM, reversible: yes
[14] = pH 4.6, Thermal, Absorbance, Sodium acetate 50 mM
[15] = pH 5, 10 °C, GdnHCl, Fluorescence, Sodium acetate 50 mM
[16] = pH 5, Thermal, Absorbance, Sodium acetate 50 mM, reversible: Yes
[17] = pH 5, Thermal, Absorbance, Sodium acetate 0.10 M, NaCl 0.10 M, reversible: yes
[18] = pH 5, Thermal, Absorbance, sodium acetate 5-20 mM, reversible: yes
[19] = pH 5, Thermal, CD, sodium acetate 5-20 mM, reversible: yes
[20] = pH 5, Thermal, DSC, acetate 50 mM, reversible: no
[21] = pH 5, Thermal, Fluorescence, Sodium acetate 0.05 M, reversible: yes
[22] = pH 5.5, Thermal, Absorbance, MES 50 mM, reversible: yes
[23] = pH 5.5, Thermal, DSC, Potassium acetate 15 mM
[24] = pH 5.5, Thermal, DSC, Potassium acetate 50 mM, reversible: yes
[25] = pH 5.5, Thermal, DSC, acetate 30 mM
[26] = pH 5.5, Thermal, DSC, sodium acetate 10 mM, KCl 100 mM, reversible: yes
[27] = pH 6, Thermal, Absorbance, MES 0.05 M, reversible: no
[28] = pH 6, Thermal, CD, MES 10 mM, KCl 0.1 M
[29] = pH 6, Thermal, DSC, Sodium phosphate 50 mM, NaCl 200 mM, reversible: yes
[30] = pH 6.35, 25 °C, Urea, Absorbance, Glycinamide 0.1 M
[31] = pH 6.8, Thermal, DSC, phosphate 10 mM, reversible: no
[32] = pH 7, 20 °C, GdnHCl, CD, Mops 50 mM
[33] = pH 7, 20 °C, GdnHCl, Fluorescence, Mops 50 mM
[34] = pH 7, 20 °C, GdnHCl, SAXS, Mops 50 mM
[35] = pH 7, Thermal, Absorbance, phosphate 0.03 M
[36] = pH 7, Thermal, CD, MOPS 20 mM, reversible: Yes (>90%)
[37] = pH 7, Thermal, CD, Sodium cacodylate 50 mM, reversible: yes
[38] = pH 7, Thermal, DSC, MES 30 mM, reversible: yes
[39] = pH 7, Thermal, DSC, bis-Tris-HCl 50 mM, reversible: yes
[40] = pH 7, Thermal, Fluorescence, MOPS 30 mM, NaCl 0.1 M, reversible: yes
[41] = pH 7, Thermal, Fluorescence, MOPS 30 mM
[42] = pH 7.05, 25 °C, Urea, Absorbance, Glycinamide 0.1 M
[43] = pH 7.1, Thermal, Absorbance, None, reversible: Yes (>90%)
[44] = pH 7.1, Thermal, CD, None, reversible: Yes (>90%)
[45] = pH 8, 25 °C, GdnHCl, CD, Sodium phosphate 50 mM, NaCl 25 mM, reversible: Yes

B1: Guanyl-specific ribonuclease T1 wild type, P00651 (protein)
chain: MMYSKLLTLTTLLLPTALALPSLVERACDYTCGSNCYSSSDVSTAQAAGYQLHEDGETVGSNSYPHKYNNYEGFDFSVSSPYYEWPILSSGDVYSGGSPGADRVVFNENNQLAGVITHTGASGNNFVECT
Tm [1]: 42.4 °C | heat capacity change of unfolding [1]: 1.79 kcal/mol/K | unfolding enthalpy (van 't Hoff) [1]: 43.2 kcal/mol | heat capacity change of unfolding [2]: 1.47 kcal/mol/K | unfolding enthalpy (van 't Hoff) [2]: 54.8 kcal/mol | unfolding free energy [2]: 1 kcal/mol | Tm [3]: 23 °C | unfolding free energy [3]: 1.72 kcal/mol | Tm (pH 1.9, Thermal, CD, HCl, reversible: yes): 25.8 °C | denaturant midpoint (higher = more stable) [4]: 1.86 M | unfolding free energy [4]: 3.68 kcal/mol | Tm [5]: 28.7 °C | unfolding free energy [5]: 3.16 kcal/mol | Tm [6]: 8.3 °C | unfolding enthalpy (van 't Hoff) [6]: 49 kcal/mol | Tm [7]: 20.2 °C | unfolding enthalpy (van 't Hoff) [7]: 20 kcal/mol | Tm [8]: 9.3 °C | unfolding enthalpy (van 't Hoff) [8]: 24 kcal/mol | Tm [9]: 40 °C | heat capacity change of unfolding [9]: 1.15 kcal/mol/K | unfolding enthalpy (calorimetric) [9]: 85 kcal/mol | Tm (pH 4.4, Thermal, NMR, Unknown): 52.3 °C | unfolding enthalpy (van 't Hoff) (pH 4.4, Thermal, NMR, Unknown): 127 kcal/mol | Tm [10]: 57 °C | unfolding enthalpy (calorimetric) [10]: 106 kcal/mol | denaturant m value [11]: 2.56 kcal/mol/M | denaturant midpoint (higher = more stable) [11]: 2.82 M | unfolding free energy [11]: 7.22 kcal/mol | denaturant m value [12]: 2.65 kcal/mol/M | denaturant midpoint (higher = more stable) [12]: 2.56 M | unfolding free energy [12]: 6.59 kcal/mol | denaturant m value [13]: 2.48 kcal/mol/M | denaturant midpoint (higher = more stable) [13]: 2.25 M | unfolding free energy [13]: 5.6 kcal/mol | Tm [14]: 56.2 °C | unfolding enthalpy (van 't Hoff) [14]: 107 kcal/mol | denaturant m value [15]: 1.84 kcal/mol/M | denaturant midpoint (higher = more stable) [15]: 5.18 M | unfolding free energy [15]: 9.54 kcal/mol | unfolding free energy (pH 5, 25 °C, GdnHCl, CD, Sodium acetate-Acetic acid 0.1 M, reversible: yes): 10.5 kcal/mol | unfolding free energy (pH 5, 25 °C, GdnHCl, DSC, Sodium acetate-Acetic acid 0.1 M, reversible: yes): 11 kcal/mol | unfolding free energy (pH 5, 40 °C, Thermal, Absorbance, Sodium acetate 50 mM, reversible: Yes): 5.06 kcal/mol | Tm [16]: 58 °C | unfolding enthalpy (van 't Hoff) [16]: 104 kcal/mol | Tm (pH 5, Thermal, Absorbance, Sodium acetate 50 mM, reversible: yes): 44.4 °C | Tm [17]: 63.3 °C | unfolding enthalpy (van 't Hoff) [17]: 118 kcal/mol | Tm (pH 5, Thermal, Absorbance, sodium acetate 50 mM, reversible: yes): 61.5 °C | Tm [18]: 58.2 °C | unfolding enthalpy (van 't Hoff) [18]: 102 kcal/mol | Tm (pH 5, Thermal, CD, sodium acetate 50 mM): 53.7 °C | Tm [19]: 64.3 °C | unfolding enthalpy (van 't Hoff) [19]: 90.8 kcal/mol | Tm [20]: 58.9 °C | unfolding enthalpy (calorimetric) [20]: 89.6 kcal/mol | Tm (pH 5, Thermal, Fluorescence, Sodium acetate 0.01 M, reversible: yes (>98%)): 58.8 °C | Tm [21]: 56.7 °C | unfolding enthalpy (van 't Hoff) [21]: 117 kcal/mol | Tm (pH 5, Thermal, Fluorescence, Sodium formate 0.1 M, NaCl 0.25 M, reversible: yes): 59.3 °C | Tm [22]: 58 °C | unfolding enthalpy (van 't Hoff) [22]: 103 kcal/mol | Tm [23]: 62 °C | unfolding enthalpy (calorimetric) [23]: 109 kcal/mol | unfolding enthalpy (van 't Hoff) [23]: 110 kcal/mol | Tm [24]: 60.9 °C | heat capacity change of unfolding [24]: 1 kcal/mol/K | unfolding enthalpy (calorimetric) [24]: 99.1 kcal/mol | Tm [25]: 64 °C | heat capacity change of unfolding [25]: 1.24 kcal/mol/K | unfolding enthalpy (calorimetric) [25]: 116 kcal/mol | Tm [26]: 60.7 °C | unfolding enthalpy (calorimetric) [26]: 107 kcal/mol | unfolding free energy (pH 6, 25 °C, Thermal, CD, MES 10 mM, KCL 0.1 M): 9.3 kcal/mol | Tm [27]: 51.9 °C | unfolding enthalpy (van 't Hoff) [27]: 97.5 kcal/mol | Tm (pH 6, Thermal, Absorbance, Sodium acetate 30 mM, NaCl 0.10 M, reversible: yes): 61.6 °C | Tm [28]: 59.6 °C | unfolding enthalpy (van 't Hoff) [28]: 112 kcal/mol | Tm [29]: 63.7 °C | heat capacity change of unfolding [29]: 1.3 kcal/mol/K | unfolding enthalpy (calorimetric) [29]: 114 kcal/mol | Tm (pH 6, Thermal, DSC, citrate 20 mM, NaCl 55 mM, reversible: yes): 65 °C | Tm (pH 6, Thermal, DSC, phosphate, reversible: yes(>90%)): 63.2 °C | denaturant m value [30]: 1.49 kcal/mol/M | denaturant midpoint (higher = more stable) [30]: 7.16 M | unfolding free energy (pH 6.45, 26 °C, GdnHCl, CD, Sodium phosphate 10 mM, KCl 0.1 M, reversible: yes): 14.4 kcal/mol | Tm [31]: 63.8 °C | unfolding enthalpy (calorimetric) [31]: 114 kcal/mol | unfolding free energy (pH 7, 0 °C, Urea, Fluorescence, MOPS 30 mM, NaCl 0.1 M, reversible: yes): 1.31 kcal/mol | unfolding free energy (pH 7, 2 °C, Urea, Fluorescence, MOPS 30 mM, NaCl 0.1 M, reversible: yes): 1.2 kcal/mol | unfolding free energy (pH 7, 5 °C, Urea, Fluorescence, MOPS 30 mM, NaCl 0.1 M, reversible: yes): 0.85 kcal/mol | denaturant m value [32]: 2.3 kcal/mol/M | denaturant midpoint (higher = more stable) [32]: 2.6 M | denaturant m value [33]: 1.9 kcal/mol/M and 1.8 kcal/mol/M | denaturant midpoint (higher = more stable) [33]: 2.6 M and 2.3 M | denaturant m value [34]: 1.9 kcal/mol/M | denaturant midpoint (higher = more stable) [34]: 2.5 M | unfolding free energy (pH 7, 25 °C, Urea, Fluorescence, MOPS 30 mM, reversible: yes): 5.5 kcal/mol | unfolding enthalpy (van 't Hoff) [35]: 115 kcal/mol and 112 kcal/mol and 104 kcal/mol | unfolding free energy [35]: 8.8 kcal/mol and 8 kcal/mol | Tm [36]: 61.7 °C | unfolding enthalpy (van 't Hoff) [36]: 112 kcal/mol | Tm [37]: 52.5 °C | unfolding enthalpy (van 't Hoff) [37]: 97.7 kcal/mol | Tm [38]: 53.3 °C | heat capacity change of unfolding [38]: 1.6 kcal/mol/K | unfolding enthalpy (calorimetric) [38]: 84.7 kcal/mol | Tm (pH 7, Thermal, DSC, Potassium phosphate 0.1 M): 44.4 °C | Tm [39]: 65.6 °C | unfolding enthalpy (calorimetric) [39]: 110 kcal/mol | Tm [40]: 12.4 °C | heat capacity change of unfolding [40]: 1.59 kcal/mol/K | unfolding enthalpy (van 't Hoff) [40]: 39.9 kcal/mol | Tm [41]: 48.3 °C | unfolding enthalpy (van 't Hoff) [41]: 96 kcal/mol | denaturant m value [42]: 1.45 kcal/mol/M | denaturant midpoint (higher = more stable) [42]: 7.59 M | unfolding free energy [42]: 10.9 kcal/mol and 3.97 kcal/mol | Tm [43]: 62.8 °C | unfolding enthalpy (van 't Hoff) [43]: 66 kcal/mol | Tm [44]: 61.4 °C | unfolding enthalpy (van 't Hoff) [44]: 122 kcal/mol | Tm (pH 7.4, Thermal, CD, PBS): 61.1 °C | unfolding enthalpy (van 't Hoff) (pH 7.4, Thermal, CD, PBS): 105 kcal/mol | unfolding free energy (pH 8, 15 °C, Urea, CD, Tris-HCl 0.1 M, NaCl 2.5 M): 2.61 kcal/mol | denaturant m value [45]: 1.99 kcal/mol/M | denaturant midpoint (higher = more stable) [45]: 3.1 M | Tm (pH 8, Thermal, CD, Sodium phosphate 50 mM, NaCl 25 mM, reversible: Yes): 65.6 °C | denaturant midpoint (higher = more stable) (pH 8.4, 23 °C, GdnHCl, Fluorescence, Tris-HCl 0.1 M): 2.25 M | denaturant midpoint (higher = more stable) (pH 8.4, 23 °C, GdnSCN, Fluorescence, Tris-HCl 0.1 M): 0.75 M
